Numbering of substitutions follows the chain as printed. Entries after “also recorded” stand apart in the source; their conditions may differ.
B1: clone 7A12: rat monoclonal antibody against TREM2 cleavage site peptide; heavy chain variable SEQ ID NO: 25, light chain variable SEQ ID NO: 35 (antibody, V domains shown)
VH: EVKLLESGGGLVQPGGSMRLSCAASGFTFTDFYMNWIRQPAGKAPEWLGLIRNKANGYTTQYNPSVKGRFTISRDNTQNMLYLQMNTLRGEDTATYYCARIGINNGGSLDYWGQGVMVTVSS
VL: DILINQSPASLTVSAGEKVTMSCKSSQSLLYSEKNQDYLAWYQQKPGQSPKLLMYGASYRHTGVPDRFTGSGSGTDFTLTISSVQAEDLADYYCEQTYSYPYTFGAGTKLELK
modifications: Clone 7A12 variable region of the heavy chain; Clone 7A12 variable region of the light chain
B2: clone 10C3: rat monoclonal antibody against TREM2 cleavage site peptide; heavy chain variable SEQ ID NO: 28, light chain variable SEQ ID NO: 38 (antibody, V domains shown)
VH: B1 VH with K43E, A44T, A55T, N56K, Q61E, T87S, G90P, I103T
VL: B1 VL with N5I, E17A, K18R, K34N, S49F, M54I, Y59N
modifications: Clone 10C3 variable region of the heavy chain; Clone 10C3 variable region of the light chain
B3: clone 8A11: rat monoclonal antibody against TREM2 cleavage site peptide; heavy chain variable SEQ ID NO: 26, light chain variable SEQ ID NO: 36 (antibody, V domains shown)
VH: B1 VH with A55T, N56K, Q61E, P64T, T87S, G90P, I103V
VL: B1 VL with N5I, E17A, K18R, K34N, S49F, M54I, Y59N
modifications: Clone 8A11 variable region of the heavy chain; Clone 8A11 variable region of the light chain
B4: clone 15C5: rat monoclonal antibody against TREM2 cleavage site peptide; heavy chain variable SEQ ID NO: 30, light chain variable SEQ ID NO: 40 (antibody, V domains shown)
VH: B1 VH with N56Y, Q61E, N79D, G90A, N105Y
VL: B1 VL with M21V, K34S, S49F, M54I, D91H
modifications: Clone 15C5 variable region of the heavy chain; Clone 15C5 variable region of the light chain
B5: clone 21A3: rat monoclonal antibody against TREM2 cleavage site peptide; heavy chain variable SEQ ID NO: 27, light chain variable SEQ ID NO: 37 (antibody, V domains shown)
VH: B1 VH
VL: B1 VL
modifications: Clone 21A3 variable region of the heavy chain; Clone 21A3 variable region of the light chain
B6: clone 18F9: rat monoclonal antibody against TREM2 cleavage site peptide; heavy chain variable SEQ ID NO: 29, light chain variable SEQ ID NO: 39 (antibody, V domains shown)
VH: B1 VH with A23V, A24V, P40A, A55V, T59R, Q61E, T77I, G90A
VL: B1 VL with K34N, S49F, M54I, Y59N
modifications: Clone 18F9 variable region of the heavy chain; Clone 18F9 variable chain of the light region

Assays:
[1] = target: T1, human TREM2 (Homo sapiens, UniProt Q9NZC2); assay: Immunoblotting of mature TREM2 in membrane fractions of HEK cells stably overexpressing wt TREM2; type: cell-based; conditions: for levels of mature TREM2 in the membrane fraction (quantified immunoblots), result in words: antibody 50 μg/mL, 24 hrs, normalized to immature TREM2, FIG. 7C
T1 construct: HEK293 Flp-In cells either expressing human full-length TREM2 or empty vector; expressed in transfected cells
T1 sequence (Q9NZC2 19-230): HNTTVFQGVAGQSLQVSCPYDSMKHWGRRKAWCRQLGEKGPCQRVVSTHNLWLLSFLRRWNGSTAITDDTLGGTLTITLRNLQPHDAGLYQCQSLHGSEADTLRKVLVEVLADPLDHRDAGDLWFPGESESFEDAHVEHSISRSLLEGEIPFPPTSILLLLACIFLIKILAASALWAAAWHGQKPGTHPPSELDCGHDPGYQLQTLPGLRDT
Experimental: HEK293 Flp-In cells stably overexpressing TREM2 or TREM2-DAP12 cDNA constructs were seeded at a density of 1.5×10^5/cm^2 and medium changed 48 h post seeding. Conditioned medium was collected after 18-20 h, immediately cooled down on ice, centrifuged at 13,000 rpm for 20 min at 4° C. and supernatants frozen at −20° C. until analysis. Supernatants were directly subjected to standard 15% SDS-PAGE. To prepare membrane fractions, cells were washed twice with ice-cold PBS, resuspended in ice-cold hypotonic buffer (0.01 M Tris, pH 7; 1 mM EDTA; 1 mM EGTA), freshly supplemented with protease inhibitor (Sigma) and incubated on ice for 30 min. After snap freezing in liquid
nitrogen and thawing, the disrupted cells were centrifuged at 13,000 rpm for 45 min at 4° C.
The resulting pellet was resuspended in STE lysis buffer (150 mM NaCl, 50 mM Tris-HCl,
pH 7.6, 2 mM EDTA, 1% Triton-X 100), incubated for 20 min on ice and clarified by centrifugation at 13,000 rpm for 30 min at 4° C. Protein concentrations were measured using the BCA method, equal amounts of protein were mixed with Laemmli sample buffer, supplemented with beta mercaptoethanol, separated by SDS-PAGE and transferred onto polyvinylidene difluoride membranes (Hybond P; Amersham Biosciences, Aylesbury, UK). Bound antibodies were visualized by corresponding HRP-conjugated secondary antibodies
using enhanced chemiluminescence technique (Pierce). Quantification of immunoblots was performed on a LAS-4000 image reader and analyzed using the Multi-Gauge V3.0 software (both Fujifilm Life Science).
(§1) 1*10^6-1.5*10^6 cells were seeded in the 6-well format. 24 hours later fresh medium was added to the cells. Antibody clones as generated by Dr. Feederle (Helmholtz Center Munich, Core Facility Monoclonal Antibody Development) were added simultaneously, i.e. for overnight treatment (about 24 hrs), at a final concentration of 50 μg/mL. On the next day, conditioned media and cells were collected and processed as described under “Preparation of conditioned media, cell lysates, and immunoblotting”.
(§2) ADAM10 inhibitor G1254023X (5 μM final concentration) and a control monoclonal antibody, which is specific for the C terminus of human TREM2, were used as positive and negative controls, respectively.

[2] = target: T1, human TREM2; conditions: Kleinberger et al, 2014; cited from earlier work
[3] = test system: human TREM2; assay: MALDI-TOF mass spectrometry analysis of TREM2 ectodomain cleavage (C-terminal fragment) in HEK293 cells; type: cell-based; conditions: C-terminally FLAG-tagged TREM2 in HEK293 cells, FIG. 1B
Experimental: HEK293 Flp-In cells stably expressing WT and H157Y TREM2 were harvested in PBS. Cell pellets were frozen at −20° C. until use. Cells were lysed in lysis buffer (4% DDM, 0.1% N-octylglucoside, 10 mM Tris-HCl, pH 8.0, 5 mM EDTA, and 140 mM NaCl) containing protease inhibitor mix (Sigma-Aldrich) for 20 min on ice. Following a clarifying spin at 13,000 g for 20 min, supernatants were subjected to a second clarifying spin by centrifugation at 100,000 g for 1 h, and incubated with anti-FLAG M2-agarose (Sigma-Aldrich) overnight by rotation at 4° C. Beads were washed four times with IP/MS buffer (0.1% N-octylglucoside, 10 mM Tris-HCl, pH 8.0, 5 mM EDTA, and 140 mM NaCl) and two times with water. Beads were stored at −20° C. until IP/MS analysis.
IP/MS analysis was performed using Voyager DE STR (Applied Biosystems) as described previously). Immunoprecipitated peptides were eluted with TFA/CH3CN/water (1:20:20) saturated with α-cyano-4-hydroxy cinnamic acid. The dissolved samples were dried on a stainless plate and subjected to MALDI-TOF MS analysis.

[4] = target: T1, human TREM2; assay: sTREM2 ELISA of conditioned media from HEK293 Flp-In cells stably overexpressing wt TREM2 (ectodomain shedding); type: cell-based; conditions: normalized to immature TREM2; for sTREM2 levels (ELISA), result in words: antibody 50 μg/mL, 24 hrs, FIG. 7B
Experimental: as §1, §2
For quantitation of levels of sTREM2 in cell culture supernatants, an ELISA for human sTREM2 was established using the Meso Scale Discovery SECTOR Imager 2400. Streptavidin-coated 96-well plates were blocked overnight at 4° C. in 0.5% bovine serum albumin (BSA) and 0.05% Tween 20 in PBS (pH 7.4) (blocking buffer). For detection of human sTREM2, plates were shaken for 1 hour at room temperature with biotinylated polyclonal goat anti-human TREM2 capture antibody (0.25 mg/ml; R&D Systems) diluted in blocking buffer. Plates were washed subsequently four times with 0.05% Tween 20 in PBS (washing buffer) and incubated for 2 hours at room temperature with samples diluted 1:4 in 0.25% BSA and 0.05% Tween 20 in PBS (pH 7.4) (assay buffer) supplemented with protease inhibitors (Sigma). Recombinant human TREM2 protein (Holzel Diagnostika) was diluted in assay buffer in a two-fold serial dilution and used for the standard curve (concentration range, 4000 to […]). Plates were washed three times for 5 min with washing buffer before incubation for 1 hour at room temperature with mouse monoclonal anti-TREM2 antibody (1 mg/ml; Santa Cruz Biotechnology; B-3) diluted in blocking buffer. After three additional washing steps, plates were incubated with a SULFO-TAG-labeled anti-mouse secondary antibody (1:1000; Meso Scale Discovery) and incubated for 1 hour in the dark. Last, plates were washed three times with washing buffer followed by two washing steps in PBS and developed by adding Meso Scale Discovery Read buffer. The light emission at 620 nm after electrochemical stimulation was measured using the Meso Scale Discovery SECTOR Imager 2400 reader. To quantify the levels of sTREM2 secreted from HEK293 Flp-In cells, conditioned media from biological replicates were analyzed in duplicates. The sTREM2 standard curves were generated using the MasterPlex ReaderFit software (MiraiBio Group, Hitachi Solutions America) through a five-parameter logistic fit. Levels of sTREM2 were subsequently normalized to levels of immature TREM2 as quantified from Western Blots.

| Molecule | levels of mature TREM2 in the membrane fraction (quantified immunoblots), result in words [1] | sTREM2 levels (ELISA), result in words [4] | also measured |
| --- | --- | --- | --- |
| CNC(=O)[C@@H](NC(=O)[C@H](CCCc1ccccc1)[C@H](C)N(O)C=O)C(C)(C)C [G1254023X] |  |  | levels of mature TREM2, result in words ([1]; ADAM10 inhibitor 5 μM, positive control): increased levels of mature TREM2; inhibition of TREM2 cleavage (literature) [2]: strongly inhibit cleavage; TREM2 C-terminal fragment cleavage peak in MALDI-TOF mass spectra upon ADAM inhibition ([3]; listed as GI): no identified peak; also recorded: did not show any peak; decrease in shedding (sTREM2 ELISA) ([4]; ADAM10 inhibitor 5 μM, about 24 hrs, positive control): about 60% |
| CNC(=O)[C@H](Cc1c[nH]c2ccccc12)NC(=O)[C@@H](CC(=O)NO)CC(C)C [GM] |  |  | TREM2 C-terminal fragment cleavage peak in MALDI-TOF mass spectra upon ADAM inhibition [3]: no identified peak; also recorded: did not show any peak |
| B1 | increased levels of TREM2 in the membrane fraction | slight trend toward reduced sTREM2 levels |  |
| B2 | increased levels of TREM2 in the membrane fraction | slight trend toward reduced sTREM2 levels |  |
| B3 | increased levels of TREM2 in the membrane fraction |  |  |
| B4 |  | slight trend toward reduced sTREM2 levels |  |
| B5 |  | slight trend toward reduced sTREM2 levels |  |
| B6 |  | slight trend toward reduced sTREM2 levels |  |

From patent US10941200B2, “TREM2 cleavage modulators and uses thereof” (Deutsches Zentrum Für Neurodegenerative Erkrankungen EV, priority 2016, dated 2021)
